This note sets out measurements from paper PMC5904244, “Oligomeric states in sodium ion-dependent regulation of cyanobacterial histidine kinase-2” (Protoplasma, 2017).

What is called stoichiometry N is a count of units in the complex or per binding partner.

Data set [1] concerns the molecule itself. As to the kind of experiment: cross-linking; DSP (1-11 mM; 2 mM in later experiments), 2-50 uM Hik2, 25 mM HEPES-NaOH pH 7.5, 5 mM KCl, 5 mM MgCl2, 23 °C, 10 min; no NaCl treatment; non-reducing 10% SDS-PAGE, Coomassie.
Data set [2] deals with the molecule itself. Put plainly: negative-stain transmission electron microscopy, single-particle analysis; dilution series on carbon-coated grids, 2% uranyl acetate; class averages assigned subjectively to oligomeric families; buffer and salt not stated.
Data set [3] concerns the molecule itself. As to the kind of experiment: SEC; Superdex 200 10/300GL, 20 mM Tris-HCl pH 7.6, 500 mM NaCl (high salt); apparent molecular masses from a calibration curve.
Data set [4] concerns the molecule itself. Put plainly: SEC; Superdex 200 10/300GL, 20 mM Tris-HCl pH 7.6, 10 mM NaCl (low salt); apparent molecular masses from a calibration curve. In general terms: SEC sorts molecules by how far they enter the pores of the column.

“And” between values parts separate entries of the source, which are not always exact repeats. Equal values may be shown once.

B1: full-length Synechocystis sp. PCC 6803 histidine kinase 2 (Hik2) (enzyme, UniProt P73276 1-434, looked up)
chain: MAGSISSMYSPSAGLISLCQSQVRLLQQGLRVDWCGVYLNQEETEQGLVPLVVSHGSTLVESESYGLISLPQGEVSPPMDDFSLPAVPVGVGQLSRRSRLEPPPFDADKRLVLPLVYGEEMVGLLVIHRSQGQWHGEEMMQLEAIAKSLAVACLLDQQQDWYRQAWEEQNQQYQWERQHWADLLHQLRNPLTALKTFSKLLLKRWHGDNKSQQVVEGIVRQGEHLQELLQSFEASQSQGPEAVPLLSSSPVTTIQVLPPADRVETMPLANFSLGEVLPPILLAHQAIAAERNITLTAQIALIDTVVMANRLALREVVNNLLDNGIKYTPNGGLVEVSLALEKVSSSGMDWATLAIADTGYGIPPEDQQKIFERNYRGVQGRGSINGTGLGLAIVADLVAQMGGKITVTSPNGLSRDPDQPGSTFTLWLRSGEQV
notes: Histidine kinase 2 (Hik2), slr1147, Synechocystis sp; PCC 6803, full length; calculated molecular mass 48.5 kDa
For the protein B1, the “stoichiometry N” value in data set [1] was 4 and 6 and 8; in data set [2], 2 and 3.

B2: truncated DHp domain of Thermosynechococcus elongatus BP-1 Hik2 (domain or fragment, UniProt Q8DMC5 142-270, looked up)
chain: SHSPAQPLDQRQQRFDDLLHQLRNPVAAIRTFVKLLLKRLEPDHKGRPLAEGIAKETERLMALLEDYRQQRNDIPALTGSQPLPLAGKPLDLAETLLPLISAAQARAEMEGKTFVVEIPPQLPPIWLEE
notes: Hik2 (tlr0195), Thermosynechococcus elongatus BP-1, DHp domain, amino acids 142-270; calculated molecular mass 15.1 kDa; The forward primer has catatgATG, so added N-terminal Met residues are likely; A C-terminal His tag from the vector is surmised
For the protein B2, the “stoichiometry N” value in data set [3] amounted to 6; in data set [4], 8.

B3: full-length Thermosynechococcus elongatus BP-1 Hik2 (enzyme, UniProt Q8DMC5 1-385, looked up)
chain: MLWPASEEFAALCRTQLELVVNSLGASSLAVYLSETLNDSPSWSPVAVYPEAASLLSLAIPPTLPPPTQVPETSLSHYPQQVVSSLANQLILPLMYQNWVLGVLVAQRQHRPWLAAEQAQLQQVAQTLAIACVLDQRQQWLSHSPAQPLDQRQQRFDDLLHQLRNPVAAIRTFVKLLLKRLEPDHKGRPLAEGIAKETERLMALLEDYRQQRNDIPALTGSQPLPLAGKPLDLAETLLPLISAAQARAEMEGKTFVVEIPPQLPPIWLEERVLQEVVGNLLDNAFKYTPKGGTIGLRLMLSSPALELTVWDTGCGIPKEAQPRLFERGYRGVQADSGIEGSGLGLAIAQDLLRPYGLSLRVTSPYAGDRGTAFTLAIPWQMKVEP
notes: Histidine kinase 2 (Hik2), tlr0195, Thermosynechococcus elongatus BP-1, full length; calculated molecular mass 44.2 kDa; The forward primer has catatgATG, so one extra N-terminal Met may be present; A C-terminal His tag from the vector is surmised
With B3, the “stoichiometry N” value in data set [3] turned out to be 4; in data set [4], 6.

B4: truncated core kinase domain of Thermosynechococcus elongatus BP-1 Hik2 containing only the DHp and CA subdomains (domain or fragment, UniProt Q8DMC5 142-385, looked up)
chain: SHSPAQPLDQRQQRFDDLLHQLRNPVAAIRTFVKLLLKRLEPDHKGRPLAEGIAKETERLMALLEDYRQQRNDIPALTGSQPLPLAGKPLDLAETLLPLISAAQARAEMEGKTFVVEIPPQLPPIWLEERVLQEVVGNLLDNAFKYTPKGGTIGLRLMLSSPALELTVWDTGCGIPKEAQPRLFERGYRGVQADSGIEGSGLGLAIAQDLLRPYGLSLRVTSPYAGDRGTAFTLAIPWQMKVEP
notes: Hik2 (tlr0195), Thermosynechococcus elongatus BP-1, kinase domain (DHp and CA), amino acids 142-386; calculated molecular mass 26.2 kDa; The forward primer has catatgATG, so added N-terminal Met residues are likely; A C-terminal His tag from the vector is surmised
Regarding B4, the entries for the “stoichiometry N” value in data set [3] and in data set [4] were 4 and 6, respectively.
